Patent US6294384, “Compositions and methods based upon an isoform of p53” (The Brigham and Women's Hospital Inc., dated 2001)

Target: the molecule itself
Assay: yeast two-hybrid system and immunoprecipitation

B1: p35 isoform of p53 derived from rat cardiac myocytes (other)
chain: MEDSQSDMSIELPLSQETFSCLWKLLPPDDILPTTATGSPNSMEDLFLPQDVAELLEGPEEALQVSAPAAQEPGTEAPAPVAPASATPWPLSSSVPSQKTYQGNYGFHLGFLQSGTAKSVMCTYSISLNKLFCQLAKTCPVQLWVTSTPPPGTRVRAMAIYKKSQHMTEVVRRCPHHERCSDGDGLAPPQHLIRVEGNPYAEYLDDRQTFRHSVVVPYEPPEVGSDYTTIHYKYMCNSSCMGGMNRRPILTIITLEDSRSVGVSASACSES
  binding result: no binding
